Positions count from the first letter of the chain named. Names and notes keep the numbering of the source.
B1: β-glycosidase (β-gly) (Saccharolobus solfataricus P2; W33G) (protein)
chain: MYSFPNSFRFGWSQAGFQSEMGTPGSEDPNTDGYKWVHDPENMAAGLVSGDLPENGPGYWGNYKTFHDNAQKMGLKIARLNVEWSRIFPNPLPRPQNFDESKQDVTEVEINENELKRLDEYANKDALNHYREIFKDLKSRGLYFILNMYHWPLPLWLHDPIRVRRGDFTGPSGWLSTRTVYEFARFSAYIAWKFDDLVDEYSTMNEPNVVGGLGYVGVKSGFPPGYLSFELSRRAMYNIIQAHARAYDGIKSVSKKPVGIIYANSSFQPLTDKDMEAVEMAENDNRWWFFDAIIRGEITRGNEKIVRDDLKGRLDWIGVNYYTRTVVKRTEKGYVSLGGYGHGCERNSVSLAGLPTSDFGWEFFPEGLYDVLTKYWNRYHLYMYVTENGIADDADYQRPYYLVSHVYQVHRAINSGADVRGYLHWSLADNYEWASGFSMRFGLLKVDYNTKRLYWRPSALVYREIATNGAITDEIEHLNSVPPVKPLRH
B2: β-glycosidase (β-gly) (Saccharolobus solfataricus P2) (protein)
chain: B1 chain with G33W

Substrate: O=C1OC2(c3ccc(O[C@@H]4O[C@H](CO)[C@H](O)[C@H](O)[C@H]4O)cc3Oc3cc(O[C@@H]4O[C@H](CO)[C@H](O)[C@H](O)[C@H]4O)ccc32)c2ccccc21
Assay: purified protein
Type: biochemical, Saccharolobus solfataricus
Conditions: no indole, pH 6.5, 37 °C, 50 mM sodium phosphate, 5% DMSO

Protein | Km [µM] | kcat [s⁻¹]
B1 | 1080 ± 30 | 0.00675 ± 0.00004
B2 | 58 ± 4 | 0.265 ± 0.002

Source: PMC3381609
